Data as given in publication doi:10.1101/2024.03.04.583282v1.

Assays:
Details in all cases: acCoA co-substrate, 50 mM Tris-HCl pH 8.5, 150 mM NaCl, 25 °C
[1] = substrate: NCCSC[C@H](N)C(=O)O; experiment: DTNB acetyltransferase assay; type: biochemical, Arabidopsis thaliana
[2] = substrate: NCCCCN; experiment: DTNB acetyltransferase assay; type: biochemical, Arabidopsis thaliana
[3] = substrate: NCCCNCCCCNCCCN; experiment: DTNB acetyltransferase assay; type: biochemical, Arabidopsis thaliana
purified protein [4] = substrate: NCCCC[C@H](N)C(=O)O; experiment: purified protein
purified protein [5] = substrate: NCCCN; experiment: purified protein
purified protein [6] = substrate: NCCC[C@H](N)C(=O)O; experiment: purified protein

Row | Protein | Km [1] | kcat [1] | Km [2] | kcat [2] | Km [3] | kcat [3] | Km (purified protein [4]) | kcat (purified protein [4]) | Km (purified protein [5]) | kcat (purified protein [5]) | Km (purified protein [6]) | kcat (purified protein [6])
1 | NATA2Δ (Arabidopsis thaliana) (protein) MFSRIRLATPSDVPFIHKLIHQMAVFERLTHLFSATESGLASTLFTSRPFQSFTVFLLEVSRSPFPATITSSPSPDFTPFFKTHNLDLPIDDPESYNFSPDMLNDVVVAGFVLFFPNYSSFLSKPGFYIEDIFVREPYRRKGFGSMLLTAVAKQAVKMGYGRVEWVVLDWNVNAIKFYEQMGAQILQEWRVCRLTGDALEAFDQVNI | 330 ± 80 µM | 2.20 ± 0.10 s⁻¹ | 2290 ± 480 µM | 1.04 ± 0.07 s⁻¹ | 1620 ± 350 µM | 1.49 ± 0.08 s⁻¹ | 9480 ± 2530 µM | 0.45 ± 0.10 s⁻¹ | 370 ± 70 µM | 1.46 ± 0.07 s⁻¹ |  | 
2 | NATA1Δ (Arabidopsis thaliana) (protein) TGHRMFSRIRLATPTDVPFIHKLIHQMAVFERLTHLFVATESGLASTLFNSRPFQAVTVFLLEISPSPFPTTHDASSPDFTPFLETHKVDLPIEDPDREKFLPDKLNDVVVAGFVLFFPNYPSFLAKQGFYIEDIFMREPYRRKGFGKLLLTAVAKQAVKLGVGRVEWIVIDWNVNAINFYEQMGAQVFKEWRLCRLTGDALQAIDKLNI | 540 ± 130 µM | 2.04 ± 0.20 s⁻¹ | 1900 ± 420 µM | 1.11 ± 0.12 s⁻¹ | 2260 ± 500 µM | 1.56 ± 0.10 s⁻¹ | 12700 ± 3520 µM | 0.58 ± 0.09 s⁻¹ | 440 ± 120 µM | 1.59 ± 0.08 s⁻¹ | 4040 ± 820 µM | 0.64 ± 0.05 s⁻¹
